Reference: the supplement of paper PMC7877785
± gives the uncertainty stated by the source.

Experiment: self-splicing fitness, log relative to wild type (ln ratio); higher = more splicing; Tetrahymena group I intron in knt gene, E. coli kanamycin selection, DiMSum; sequences stand for … in CUCUCU…GGAGGGAAAAGUUAUCAGGCAUGCACCUGGUAGCUAGUCUUUAAACCAAUAGAUUGCAUCGGUUUAAAAGGCAAGACCGUCAAAUUGCGGGAAAGGGGUCAACAGCCGUUCAGUACCAAGUCUCAGGGGAAACUUUGAGAUGGCCUUGCAAAGGGUAUGGUAAUAAGCUGACGGACAUGGUCCUAACCACGCAGCCAAGUCCUAAGUCAACAGAUCUUCUGUUGAUAUGGAUGCAGUUCACAGACUAAAUGUCGGUCGGGGAAGAUGUAUUCUUCUCAUAAGAUAUAGUCGGACCUCUCCUUAAUGGGAGCUAGCGGAUGAAGUGAUGCAACACUGGAGCCGCUGGGAACUAAUUUGUAUGCGAAAGUAUAUUGAUUAGUUUUGGAGUACUCGUGGUCG
How it was run: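 DiMSum derived fitness as the error-weighted combination of fold changes across replicates, kanamycin versus no kanamycin, normalised to wild type. E. coli BL21(DE3) held the library, which randomised all eight P1ex-region intron nucleotides within the knt kanamycin-resistance gene on pET-22b(+). Six replicate transformations grew overnight at 37°C or 30°C on LB agar with or without 25 μg/mL kanamycin, also containing 100 μg/mL carbenicillin, 50 μM IPTG and 0.2% rhamnose, and pooled colonies were amplicon-sequenced on an Illumina HiSeq 2500.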

Sequence | self-splicing fitness (ln) (30 °C) | self-splicing fitness (ln) (37 °C)
CGCGAGCAAUAUUACGGGAU | -4.13 ± 0.23 | -2.59 ± 0.21
CGGUAGCAAUAUUACGACGC | -1.39 ± 0.16 | -0.431 ± 0.2
CGCCAGCAAUAUUACGACUG | -0.729 ± 0.13 | 0.335 ± 0.15
CCGCAGCAAUAUUACGAACC | -1.84 ± 0.39 | –
CAGGAGCAAUAUUACGGUUU | -3.2 ± 0.41 | –
GGAGAGCAAUAUUACGACGU | -1.29 ± 0.2 | -0.823 ± 0.25
UGCCAGCAAUAUUACGAACG | 0.252 ± 0.055 | 0.281 ± 0.067
CUAAAGCAAUAUUACGCCCG | 0.465 ± 0.11 | -0.0373 ± 0.12
GCCGAGCAAUAUUACGCACA | -1.22 ± 0.2 | -1.51 ± 0.19
AAAGAGCAAUAUUACGCUUC | -2.33 ± 0.29 | -3.01 ± 0.43
AUGAAGCAAUAUUACGAAAG | -1.77 ± 0.11 | -0.735 ± 0.16
CCCGAGCAAUAUUACGUUGC | -3.75 ± 0.12 | -2.71 ± 0.16
GAUUAGCAAUAUUACGCAAC | -3.22 ± 0.26 | -1.89 ± 0.19
GGCAAGCAAUAUUACGGCAG | -2.32 ± 0.14 | -1.15 ± 0.15
ACUCAGCAAUAUUACGCGGC | -3.2 ± 0.25 | –
GUCUAGCAAUAUUACGCUGC | – | -2.71 ± 0.34
GGGUAGCAAUAUUACGCCGA | -0.784 ± 0.16 | -0.0895 ± 0.11
GGGGAGCAAUAUUACGGCAA | -2.04 ± 0.33 | -0.565 ± 0.25
AUGGAGCAAUAUUACGCUCG | -1.58 ± 0.14 | -0.952 ± 0.18
AAGUAGCAAUAUUACGCUUA | -0.794 ± 0.14 | -0.587 ± 0.14
AUGGAGCAAUAUUACGCACA | -1.57 ± 0.16 | -0.961 ± 0.21
AGGGAGCAAUAUUACGAGGC | -2.51 ± 0.35 | -2.59 ± 0.44
CUAUAGCAAUAUUACGGCCU | -2.9 ± 0.38 | -1.78 ± 0.38
ACUGAGCAAUAUUACGCAAA | -2.29 ± 0.38 | -1.93 ± 0.34
CGGCAGCAAUAUUACGGAUG | -0.873 ± 0.075 | 0.507 ± 0.11

Sequence | self-splicing fitness (ln) (30 °C) | self-splicing fitness (ln) (37 °C)
CAAAAGCAAUAUUACGUAUC | -4.08 ± 0.21 | -1.02 ± 0.15
UUGGAGCAAUAUUACGACGU | -1.85 ± 0.48 | –
CGUAAGCAAUAUUACGUCCG | -0.78 ± 0.059 | -0.649 ± 0.08
CCUUAGCAAUAUUACGGGUA | -2.65 ± 0.19 | -2.38 ± 0.26
CGGCAGCAAUAUUACGACAU | -3.303 ± 0.021 | -1.91 ± 0.035
ACCCAGCAAUAUUACGAAAA | -1.66 ± 0.097 | -1.83 ± 0.13
UCUCAGCAAUAUUACGGCCG | – | -2.73 ± 0.38
GACAAGCAAUAUUACGUGAG | -2.28 ± 0.058 | -1.43 ± 0.06
GAUUAGCAAUAUUACGGCUA | -0.867 ± 0.099 | -0.414 ± 0.1
GCCUAGCAAUAUUACGGUUC | -1.02 ± 0.07 | -1.45 ± 0.11
AGCCAGCAAUAUUACGGUAU | -2.57 ± 0.1 | -1.14 ± 0.094
CGCCAGCAAUAUUACGCCCG | -1.47 ± 0.14 | -0.959 ± 0.19
AUGUAGCAAUAUUACGCUAC | -3.14 ± 0.34 | -2.59 ± 0.34
CCGAAGCAAUAUUACGUUUU | -3.83 ± 0.17 | -3.26 ± 0.18
CAACAGCAAUAUUACGUCUU | -1.48 ± 0.061 | -0.62 ± 0.07
ACUCAGCAAUAUUACGUCAC | -3.57 ± 0.15 | -1.97 ± 0.15
GUAAAGCAAUAUUACGCGGC | -2.96 ± 0.21 | -0.672 ± 0.18
GGUCAGCAAUAUUACGCGUU | -0.112 ± 0.084 | 0.0966 ± 0.13
CGCGAGCAAUAUUACGUUUC | -4.02 ± 0.27 | -2.06 ± 0.25
GGUUAGCAAUAUUACGGUAC | -1.21 ± 0.11 | -0.6 ± 0.15
GAUCAGCAAUAUUACGAUCU | -4.13 ± 0.42 | -1.8 ± 0.26
AGGAAGCAAUAUUACGGAGU | -2.89 ± 0.17 | -1.7 ± 0.22
CGGUAGCAAUAUUACGGACC | -3.71 ± 0.35 | -1.29 ± 0.21
UAUCAGCAAUAUUACGAUAU | -2.41 ± 0.11 | -1.64 ± 0.13
UGAUAGCAAUAUUACGGUCA | -0.441 ± 0.073 | -0.29 ± 0.071
